Test results as given in patent US20250262210A1 (TRUSTEES OF COLUMBIA UNIVERSITY IN THE CITY OF NEW YORK, published 2025).
Substitutions are numbered along the chain they refer to. Values belong to the binder of their own block, whether it stands above or below them.

How the values were obtained:
LZTR1-FLAG = target: T1, LZTR1-FLAG (human, UniProt Q8N653 1-840); test: IP/MS, LZTR1 wild type-FLAG, U87
T1 construct: Expressed in HEK 293T, HeLa or U87 cells; used as cell lysate; also called LZTR1 wild type-FLAG; LZTR1 WT; not shown: FLAG tag at the C-terminus
T1 sequence (looked up): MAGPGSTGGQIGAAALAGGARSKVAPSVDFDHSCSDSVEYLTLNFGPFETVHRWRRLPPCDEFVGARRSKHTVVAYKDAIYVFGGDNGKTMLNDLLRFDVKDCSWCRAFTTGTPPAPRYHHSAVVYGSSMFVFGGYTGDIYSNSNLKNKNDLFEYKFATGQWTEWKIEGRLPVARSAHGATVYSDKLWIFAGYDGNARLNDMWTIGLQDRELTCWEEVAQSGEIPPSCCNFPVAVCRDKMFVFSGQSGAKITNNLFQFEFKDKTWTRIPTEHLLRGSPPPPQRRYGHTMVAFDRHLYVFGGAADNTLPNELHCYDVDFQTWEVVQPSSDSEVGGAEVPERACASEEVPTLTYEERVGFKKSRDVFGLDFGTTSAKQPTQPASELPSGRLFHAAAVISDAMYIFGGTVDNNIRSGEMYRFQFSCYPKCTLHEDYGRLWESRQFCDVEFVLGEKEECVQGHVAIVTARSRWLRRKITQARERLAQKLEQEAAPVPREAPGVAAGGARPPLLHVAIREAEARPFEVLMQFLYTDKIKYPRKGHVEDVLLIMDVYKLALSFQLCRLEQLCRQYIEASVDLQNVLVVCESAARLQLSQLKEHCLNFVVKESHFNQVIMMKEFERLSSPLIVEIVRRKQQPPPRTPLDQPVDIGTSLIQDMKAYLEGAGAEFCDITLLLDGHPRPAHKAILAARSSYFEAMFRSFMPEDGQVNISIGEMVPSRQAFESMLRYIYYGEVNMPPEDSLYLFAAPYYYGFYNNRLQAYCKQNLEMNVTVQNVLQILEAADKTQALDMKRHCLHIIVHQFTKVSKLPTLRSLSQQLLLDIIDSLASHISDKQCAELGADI
Procedure, shortened: (§1)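 Read-out: spectral counts from LC-MS/MS (Orbitrap Fusion) after MaxQuant identification. Variable modifications were Met oxidation, protein N-terminal acetylation and N/Q deamidation.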

LZTR1 R810W-FLAG = target: T2, LZTR1 R810W-FLAG (human, UniProt Q8N653 1-840); test: IP/MS, LZTR1 R810W-FLAG, U87
T2 construct: Stably expressed in U87 cells by lentivirus; also called LZTR1-FLAG-R810W; LZTR1 RW; not shown: FLAG tag
T2 sequence (looked up): T1 sequence (looked up) with R810W
Procedure, shortened: as §1

binding result (LZTR1-FLAG): binds
binding result (LZTR1 R810W-FLAG): binds
B1: RETSAT (other, human, UniProt Q6NUM9 19-610, looked up)
chain: KVYLGLFSGSSPNPFSEDVKRPPAPLVTDKEARKKVLKQAFSANQVPEKLDVVVIGSGFGGLAAAAILAKAGKRVLVLEQHTKAGGCCHTFGKNGLEFDTGIHYIGRMEEGSIGRFILDQITEGQLDWAPLSSPFDIMVLEGPNGRKEYPMYSGEKAYIQGLKEKFPQEEAIIDKYIKLVKVVSSGAPHAILLKFLPLPVVQLLDRCGLLTRFSPFLQASTQSLAEVLQQLGASSELQAVLSYIFPTYGVTPNHSAFSMHALLVNHYMKGGFYPRGGSSEIAFHTIPVIQRAGGAVLTKATVQSVLLDSAGKACGVSVKKGHELVNIYCPIVVSNAGLFNTYEHLLPGNARCLPGVKQQLGTVRPGLGMTSVFICLRGTKEDLHLPSTNYYVYYDTDMDQAMERYVSMPREEAAEHIPLLFFAFPSAKDPTWEDRFPGRSTMIMLIPTAYEWFEEWQAELKGKRGSDYETFKNSFVEASMSVVLKLFPQLEGKVESVTAGSPLTNQFYLAAPRGACYGADHDLGRLHPCVMASLRAQSPIPNLYLTGQDIFTCGLVGALQGALLCSSAILKRNLYSDLKNLDSRIRAQKKKN

binding result (LZTR1-FLAG): binds
binding result (LZTR1 R810W-FLAG): binds
B2: SCYL1 (other, human, UniProt Q96KG9 1-808, looked up)
chain: MWFFARDPVRDFPFELIPEPPEGGLPGPWALHRGRKKATGSPVSIFVYDVKPGAEEQTQVAKAAFKRFKTLRHPNILAYIDGLETEKCLHVVTEAVTPLGIYLKARVEAGGLKELEISWGLHQIVKALSFLVNDCSLIHNNVCMAAVFVDRAGEWKLGGLDYMYSAQGNGGGPPRKGIPELEQYDPPELADSSGRVVREKWSADMWRLGCLIWEVFNGPLPRAAALRNPGKIPKTLVPHYCELVGANPKVRPNPARFLQNCRAPGGFMSNRFVETNLFLEEIQIKEPAEKQKFFQELSKSLDAFPEDFCRHKVLPQLLTAFEFGNAGAVVLTPLFKVGKFLSAEEYQQKIIPVVVKMFSSTDRAMRIRLLQQMEQFIQYLDEPTVNTQIFPHVVHGFLDTNPAIREQTVKSMLLLAPKLNEANLNVELMKHFARLQAKDEQGPIRCNTTVCLGKIGSYLSASTRHRVLTSAFSRATRDPFAPSRVAGVLGFAATHNLYSMNDCAQKILPVLCGLTVDPEKSVRDQAFKAIRSFLSKLESVSEDPTQLEEVEKDVHAASSPGMGGAAASWAGWAVTGVSSLTSKLIRSHPTTAPTETNIPQRPTPEGVPAPAPTPVPATPTTSGHWETQEEDKDTAEDSSTADRWDDEDWGSLEQEAESVLAQQDDWSTGGQVSRASQVSNSDHKSSKSPESDWSSWEAEGSWEQGWQEPSSQEPPPDGTRLASEYNWGGPESSDKGDPFATLSARPSTQPRPDSWGEDNWEGLETDSRQVKAELARKKREERRREMEAKRAERKVAKGPMKLGARKLD

binding result (LZTR1-FLAG): binds
binding result (LZTR1 R810W-FLAG): binds
B3: SHCBP1 (other, human, UniProt Q8NEM2 2-672, looked up)
chain: ADGSLTGGGLEAAAMAPERMGWAVEQELASLEKGLFQDEDSCSDCSYRDKPGSSLQSFMPEGKTFFPEIFQTNQLLFYERFRAYQDYILADCKASEVQEFTAEFLEKVLEPSGWRAVWHTNVFKVLVEITDVDFAALKAVVRLAEPYLCDSQVSTFTMECMKELLDLKEHRLPLQELWVVFDDSGVFDQTALAIEHVRFFYQNIWRSWDEEEEDEYDYFVRCVEPRLRLHYDILEDRVPSGLIVDYHNLLSQCEESYRKFLNLRSSLSNCNSDSEQENISMVEGLKLYSEMEQLKQKLKLIENPLLRYVFGYQKNSNIQAKGVRSSGQKITHVVSSTMMAGLLRSLLTDRLCQEPGEEEREIQFHSDPLSAINACFEGDTVIVCPGHYVVHGTFSIADSIELEGYGLPDDIVIEKRGKGDTFVDCTGADIKISGIKFVQHDAVEGILIVHRGKTTLENCVLQCETTGVTVRTSAEFLMKNSDLYGAKGAGIEIYPGSQCTLSDNGIHHCKEGILIKDFLDEHYDIPKISMVNNIIHNNEGYGVVLVKPTIFSDLQENAEDGTEENKALKIQTSGEPDVAERVDLEELIECATGKMELCARTDPSEQVEGNCEIVNELIAASTQKGQIKKKRLSELGITQADDNLMSQEMFVGIVGNQFKWNGKGSFGTFLF

binding result (LZTR1-FLAG): binds
binding result (LZTR1 R810W-FLAG): binds
B4: SMS (other, human, UniProt P52788 2-366, looked up)
chain: AAARHSTLDFMLGAKADGETILKGLQSIFQEQGMAESVHTWQDHGYLATYTNKNGSFANLRIYPHGLVLLDLQSYDGDAQGKEEIDSILNKVEERMKELSQDSTGRVKRLPPIVRGGAIDRYWPTADGRLVEYDIDEVVYDEDSPYQNIKILHSKQFGNILILSGDVNLAESDLAYTRAIMGSGKEDYTGKDVLILGGGDGGILCEIVKLKPKMVTMVEIDQMVIDGCKKYMRKTCGDVLDNLKGDCYQVLIEDCIPVLKRYAKEGREFDYVINDLTAVPISTSPEEDSTWEFLRLILDLSMKVLKQDGKYFTQGNCVNLTEALSLYEEQLGRLYCPVEFSKEIVCVPSYLELWVFYTVWKKAKP

binding result (LZTR1-FLAG): binds
binding result (LZTR1 R810W-FLAG): binds
B5: SHKBP1 (other, human, UniProt Q8TBC3 2-707, looked up)
chain: AAAATAAEGVPSRGPPGEVIHLNVGGKRFSTSRQTLTWIPDSFFSSLLSGRISTLKDETGAIFIDRDPTVFAPILNFLRTKELDPRGVHGSSLLHEAQFYGLTPLVRRLQLREELDRSSCGNVLFNGYLPPPVFPVKRRNRHSLVGPQQLGGRPAPVRRSNTMPPNLGNAGLLGRMLDEKTPPSPSGQPEEPGMVRLVCGHHNWIAVAYTQFLVCYRLKEASGWQLVFSSPRLDWPIERLALTARVHGGALGEHDKMVAAATGSEILLWALQAEGGGSEIGVFHLGVPVEALFFVGNQLIATSHTGRIGVWNAVTKHWQVQEVQPITSYDAAGSFLLLGCNNGSIYYVDVQKFPLRMKDNDLLVSELYRDPAEDGVTALSVYLTPKTSDSGNWIEIAYGTSSGGVRVIVQHPETVGSGPQLFQTFTVHRSPVTKIMLSEKHLISVCADNNHVRTWSVTRFRGMISTQPGSTPLASFKILALESADGHGGCSAGNDIGPYGERDDQQVFIQKVVPSASQLFVRLSSTGQRVCSVRSVDGSPTTAFTVLECEGSRRLGSRPRRYLLTGQANGSLAMWDLTTAMDGLGQAPAGGLTEQELMEQLEHCELAPPAPSAPSWGCLPSPSPRISLTSLHSASSNTSLSGHRGSPSPPQAEARRRGGGSFVERCQELVRSGPDLRRPPTPAPWPSSGLGTPLTPPKMKLNETSF

binding result (LZTR1-FLAG): binds
binding result (LZTR1 R810W-FLAG): binds
B6: SL C39A14 (other, human, UniProt Q15043 31-492, looked up)
chain: SSLGAPAISAASFLQDLIHRYGEGDSLTLQQLKALLNHLDVGVGRGNVTQHVQGHRNLSTCFSSGDLFTAHNFSEQSRIGSSELQEFCPTILQQLDSRACTSENQENEENEQTEEGRPSAVEVWGYGLLCVTVISLCSLLGASVVPFMKKTFYKRLLLYFIALAIGTLYSNALFQLIPEAFGFNPLEDYYVSKSAVVFGGFYLFFFTEKILKILLKQKNEHHHGHSHYASESLPSKKDQEEGVMEKLQNGDLDHMIPQHCSSELDGKAPMVDEKVIVGSLSVQDLQASQSACYWLKGVRYSDIGTLAWMITLSDGLHNFIDGLAIGASFTVSVFQGISTSVAILCEEFPHELGDFVILLNAGMSIQQALFFNFLSACCCYLGLAFGILAGSHFSANWIFALAGGMFLYISLADMFPEMNEVCQEDERKGSILIPFIIQNLGLLTGFTIMVVLTMYSGQIQIG
notes: Printed as SL C39A14; read as SLC39A14

binding result (LZTR1-FLAG): binds
binding result (LZTR1 R810W-FLAG): binds
B7: SMG9 (other, human, UniProt Q9H0W8 2-520, looked up)
chain: SESGHSQPGLYGIERRRRWKEPGSGGPQNLSGPGGRERDYIAPWERERRDASEETSTSVMQKTPIILSKPPAERSKQPPPPTAPAAPPAPAPLEKPIVLMKPREEGKGPVAVTGASTPEGTAPPPPAAPAPPKGEKEGQRPTQPVYQIQNRGMGTAAPAAMDPVVGQAKLLPPERMKHSIKLVDDQMNWCDSAIEYLLDQTDVLVVGVLGLQGTGKSMVMSLLSANTPEEDQRTYVFRAQSAEMKERGGNQTSGIDFFITQERIVFLDTQPILSPSILDHLINNDRKLPPEYNLPHTYVEMQSLQIAAFLFTVCHVVIVVQDWFTDLSLYRFLQTAEMVKPSTPSPSHESSSSSGSDEGTEYYPHLVFLQNKARREDFCPRKLRQMHLMIDQLMAHSHLRYKGTLSMLQCNVFPGLPPDFLDSEVNLFLVPFMDSEAESENPPRAGPGSSPLFSLLPGYRGHPSFQSLVSKLRSQVMSMARPQLSHTILTEKNWFHYAARIWDGVRKSSALAEYSRLLA
